Test results taken from publication doi:10.1101/2023.07.12.548734.

Biological target: CrtSPARTA (heterodimeric TIR-APAZ/short pAgo complex from Crenotalea thermophila) (Crenotalea thermophila)
Assay: cryo-EM structure

stoichiometry N (heterodimers in the assembly (octamer)): 4 | stoichiometry N (heterodimers in the assembly (tetramer)): 2
Substance: CrtSPARTA (heterodimeric TIR-APAZ/short pAgo complex from Crenotalea thermophila)
